According to patent publication US20140057284A1, “PHOTOLUMINESCENT MOLECULAR COMPLEX AND METHOD FOR DETERMINING OF THE CONCENTRATION OF SAID MOLECULAR COMPLEX” (priority 2011, published 2014):

Assays:
[1] = molecular target: Aurora B (Homo sapiens, UniProt Q96GD4); test: biochemical; conditions: read-out: Percentages of residual activities of the kinase reaction
Description: (§1) Selectivity testing (Table 2) was performed on the commercial basis at the Division of Signal Transduction Therapy, University of Dundee. ATP concentrations that were used in testing were close to the Km value of the kinase.

[2] = molecular target: BRSK1 (Homo sapiens, UniProt Q8TDC3); test: biochemical; conditions: read-out: Percentages of residual activities of the kinase reaction
Description: as §1

[3] = molecular target: CAMK1 (Homo sapiens, UniProt Q14012); test: biochemical; conditions: read-out: Percentages of residual activities of the kinase reaction
Description: as §1

[4] = molecular target: CAMKKb (Homo sapiens, UniProt Q96RR4); test: biochemical; conditions: read-out: Percentages of residual activities of the kinase reaction
Description: as §1

[5] = molecular target: CHK2 (Homo sapiens, UniProt O96017); test: biochemical; conditions: read-out: Percentages of residual activities of the kinase reaction
Description: as §1

[6] = molecular target: EF2K (Homo sapiens, UniProt O00418); test: biochemical; conditions: read-out: Percentages of residual activities of the kinase reaction
Description: as §1

[7] = molecular target: EPH-A2 (Homo sapiens, UniProt P29317); test: biochemical; conditions: read-out: Percentages of residual activities of the kinase reaction
Description: as §1

[8] = molecular target: EPH-B1 (Homo sapiens, UniProt P54762); test: biochemical; conditions: read-out: Percentages of residual activities of the kinase reaction
Description: as §1

[9] = molecular target: EPH-B2 (Homo sapiens, UniProt P29323); test: biochemical; conditions: read-out: Percentages of residual activities of the kinase reaction
EPH-B2, sequence (P29323 19-1055, species assumed): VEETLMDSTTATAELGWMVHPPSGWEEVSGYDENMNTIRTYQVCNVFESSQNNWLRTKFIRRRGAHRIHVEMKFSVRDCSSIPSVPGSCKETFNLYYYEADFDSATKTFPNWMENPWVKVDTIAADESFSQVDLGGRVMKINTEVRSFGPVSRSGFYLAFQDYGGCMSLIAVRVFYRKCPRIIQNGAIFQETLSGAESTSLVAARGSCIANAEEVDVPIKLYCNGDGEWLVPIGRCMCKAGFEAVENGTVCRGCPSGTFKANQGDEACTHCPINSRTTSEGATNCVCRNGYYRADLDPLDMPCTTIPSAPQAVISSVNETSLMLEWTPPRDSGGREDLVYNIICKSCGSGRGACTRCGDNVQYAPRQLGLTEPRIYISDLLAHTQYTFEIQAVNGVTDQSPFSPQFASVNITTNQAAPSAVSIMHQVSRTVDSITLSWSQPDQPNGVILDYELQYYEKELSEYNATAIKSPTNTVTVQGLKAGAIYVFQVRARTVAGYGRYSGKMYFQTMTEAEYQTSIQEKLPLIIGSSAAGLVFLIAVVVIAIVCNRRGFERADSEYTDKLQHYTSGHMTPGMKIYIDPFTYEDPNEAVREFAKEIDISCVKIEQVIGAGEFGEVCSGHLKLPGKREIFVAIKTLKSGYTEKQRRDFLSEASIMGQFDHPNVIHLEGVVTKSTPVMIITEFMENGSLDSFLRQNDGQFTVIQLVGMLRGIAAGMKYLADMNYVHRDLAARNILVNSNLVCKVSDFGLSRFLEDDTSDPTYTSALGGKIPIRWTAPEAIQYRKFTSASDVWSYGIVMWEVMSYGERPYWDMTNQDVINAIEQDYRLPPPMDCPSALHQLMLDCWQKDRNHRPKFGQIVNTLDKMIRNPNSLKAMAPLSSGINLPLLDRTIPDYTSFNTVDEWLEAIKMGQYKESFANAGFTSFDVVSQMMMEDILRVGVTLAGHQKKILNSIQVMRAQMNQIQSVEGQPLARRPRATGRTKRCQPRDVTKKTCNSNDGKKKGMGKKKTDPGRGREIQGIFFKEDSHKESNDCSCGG
Description: as §1

[10] = molecular target: ERK1 (Homo sapiens, UniProt P27361); test: biochemical; conditions: read-out: Percentages of residual activities of the kinase reaction
ERK1, sequence (P27361 whole entry, species assumed): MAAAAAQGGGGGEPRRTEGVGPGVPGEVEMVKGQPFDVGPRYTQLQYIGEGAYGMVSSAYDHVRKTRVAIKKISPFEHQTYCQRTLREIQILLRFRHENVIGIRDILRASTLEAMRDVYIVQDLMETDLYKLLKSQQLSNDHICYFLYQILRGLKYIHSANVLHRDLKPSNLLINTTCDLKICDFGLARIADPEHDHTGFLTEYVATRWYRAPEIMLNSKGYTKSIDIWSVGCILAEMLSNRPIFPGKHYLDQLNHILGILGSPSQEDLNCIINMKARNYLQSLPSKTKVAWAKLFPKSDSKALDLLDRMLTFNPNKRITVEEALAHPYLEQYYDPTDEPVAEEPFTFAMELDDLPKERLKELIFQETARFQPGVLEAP
Description: as §1

[11] = molecular target: HER4 (Homo sapiens, UniProt Q15303); test: biochemical; conditions: read-out: Percentages of residual activities of the kinase reaction
HER4, sequence (Q15303 26-1308, species assumed): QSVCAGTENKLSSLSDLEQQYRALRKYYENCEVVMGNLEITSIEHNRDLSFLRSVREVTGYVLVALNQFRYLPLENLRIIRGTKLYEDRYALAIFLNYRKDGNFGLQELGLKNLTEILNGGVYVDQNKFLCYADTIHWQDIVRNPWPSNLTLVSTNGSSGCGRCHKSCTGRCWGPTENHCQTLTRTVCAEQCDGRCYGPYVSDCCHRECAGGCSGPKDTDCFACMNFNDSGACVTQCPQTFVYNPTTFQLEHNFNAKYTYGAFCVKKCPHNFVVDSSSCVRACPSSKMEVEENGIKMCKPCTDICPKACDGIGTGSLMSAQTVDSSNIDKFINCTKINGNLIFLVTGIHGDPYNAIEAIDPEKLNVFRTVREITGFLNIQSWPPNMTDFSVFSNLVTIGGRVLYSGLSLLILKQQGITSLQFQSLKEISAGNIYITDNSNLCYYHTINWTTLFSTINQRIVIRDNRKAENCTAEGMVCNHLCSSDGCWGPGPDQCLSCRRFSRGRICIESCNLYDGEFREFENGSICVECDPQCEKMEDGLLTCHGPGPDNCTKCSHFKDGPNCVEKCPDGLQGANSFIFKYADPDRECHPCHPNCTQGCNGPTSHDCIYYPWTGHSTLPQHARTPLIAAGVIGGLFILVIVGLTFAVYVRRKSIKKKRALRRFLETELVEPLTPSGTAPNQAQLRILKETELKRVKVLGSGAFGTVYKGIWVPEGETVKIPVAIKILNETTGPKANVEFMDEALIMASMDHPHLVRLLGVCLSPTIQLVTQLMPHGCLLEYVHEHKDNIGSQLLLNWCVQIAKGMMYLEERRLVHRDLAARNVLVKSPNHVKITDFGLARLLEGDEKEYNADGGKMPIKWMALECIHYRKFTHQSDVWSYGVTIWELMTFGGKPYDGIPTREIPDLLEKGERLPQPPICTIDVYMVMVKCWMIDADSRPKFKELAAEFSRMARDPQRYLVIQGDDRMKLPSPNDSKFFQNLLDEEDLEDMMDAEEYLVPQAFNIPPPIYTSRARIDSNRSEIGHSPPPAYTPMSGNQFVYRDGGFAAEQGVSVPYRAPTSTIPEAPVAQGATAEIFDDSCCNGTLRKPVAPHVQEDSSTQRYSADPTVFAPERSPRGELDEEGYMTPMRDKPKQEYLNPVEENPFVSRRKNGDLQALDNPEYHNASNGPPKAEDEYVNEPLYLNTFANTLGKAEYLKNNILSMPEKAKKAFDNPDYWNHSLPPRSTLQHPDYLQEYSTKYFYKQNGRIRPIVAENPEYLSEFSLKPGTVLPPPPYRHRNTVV
Description: as §1

[12] = molecular target: HIPK2 (Homo sapiens, UniProt Q9H2X6); test: biochemical; conditions: read-out: Percentages of residual activities of the kinase reaction
HIPK2, sequence (Q9H2X6 whole entry, species assumed): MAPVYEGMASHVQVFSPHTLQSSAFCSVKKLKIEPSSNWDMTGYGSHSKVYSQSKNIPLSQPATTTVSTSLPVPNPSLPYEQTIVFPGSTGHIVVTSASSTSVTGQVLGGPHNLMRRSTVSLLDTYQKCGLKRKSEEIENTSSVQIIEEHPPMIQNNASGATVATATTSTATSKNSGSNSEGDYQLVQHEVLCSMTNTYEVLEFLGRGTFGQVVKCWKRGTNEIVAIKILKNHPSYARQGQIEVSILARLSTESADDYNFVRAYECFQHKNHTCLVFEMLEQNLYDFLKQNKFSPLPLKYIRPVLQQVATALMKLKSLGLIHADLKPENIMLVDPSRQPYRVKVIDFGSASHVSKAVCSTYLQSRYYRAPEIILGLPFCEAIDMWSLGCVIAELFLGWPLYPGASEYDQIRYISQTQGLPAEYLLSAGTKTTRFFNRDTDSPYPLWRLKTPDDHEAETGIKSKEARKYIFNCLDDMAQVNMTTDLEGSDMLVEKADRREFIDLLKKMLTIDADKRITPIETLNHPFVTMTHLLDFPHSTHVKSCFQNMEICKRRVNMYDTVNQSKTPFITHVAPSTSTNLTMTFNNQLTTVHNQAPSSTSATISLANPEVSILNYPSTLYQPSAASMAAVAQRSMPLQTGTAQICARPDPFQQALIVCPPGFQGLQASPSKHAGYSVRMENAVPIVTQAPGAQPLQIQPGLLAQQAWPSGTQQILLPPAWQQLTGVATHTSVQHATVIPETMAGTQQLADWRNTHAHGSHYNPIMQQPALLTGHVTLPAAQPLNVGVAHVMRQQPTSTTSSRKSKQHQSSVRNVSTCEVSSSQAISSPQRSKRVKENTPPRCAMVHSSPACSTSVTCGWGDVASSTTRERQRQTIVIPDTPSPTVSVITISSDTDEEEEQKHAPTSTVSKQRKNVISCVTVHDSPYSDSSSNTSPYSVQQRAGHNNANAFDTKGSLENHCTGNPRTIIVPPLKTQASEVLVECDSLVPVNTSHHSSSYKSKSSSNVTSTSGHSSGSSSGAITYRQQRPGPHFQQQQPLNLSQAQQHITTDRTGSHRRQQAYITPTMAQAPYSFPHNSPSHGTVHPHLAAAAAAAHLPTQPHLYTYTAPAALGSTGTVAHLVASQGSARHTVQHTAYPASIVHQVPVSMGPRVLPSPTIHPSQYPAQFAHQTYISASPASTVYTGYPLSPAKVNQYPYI
Description: as §1

[13] = molecular target: Lck (Homo sapiens, UniProt P06239); test: biochemical; conditions: read-out: Percentages of residual activities of the kinase reaction
Lck, sequence (P06239 whole entry, species assumed): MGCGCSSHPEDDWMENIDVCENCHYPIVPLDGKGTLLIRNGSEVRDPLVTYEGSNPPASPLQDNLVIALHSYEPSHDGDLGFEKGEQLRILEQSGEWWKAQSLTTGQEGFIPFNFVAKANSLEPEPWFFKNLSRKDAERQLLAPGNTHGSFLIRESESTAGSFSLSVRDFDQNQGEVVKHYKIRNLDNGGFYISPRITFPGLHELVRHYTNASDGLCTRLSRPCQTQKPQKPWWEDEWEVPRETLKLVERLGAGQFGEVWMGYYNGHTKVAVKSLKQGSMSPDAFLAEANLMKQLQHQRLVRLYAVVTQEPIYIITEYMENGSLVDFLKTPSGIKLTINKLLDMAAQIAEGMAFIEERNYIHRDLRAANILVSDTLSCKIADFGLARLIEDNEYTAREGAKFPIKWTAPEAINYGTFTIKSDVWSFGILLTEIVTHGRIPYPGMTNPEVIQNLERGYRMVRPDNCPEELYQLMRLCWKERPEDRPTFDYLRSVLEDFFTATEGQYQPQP
Description: as §1

[14] = molecular target: MKK2 (Homo sapiens, UniProt P36507); test: biochemical; conditions: read-out: Percentages of residual activities of the kinase reaction
Description: as §1

[15] = molecular target: MLK1 (Homo sapiens, UniProt P80192); test: biochemical; conditions: read-out: Percentages of residual activities of the kinase reaction
Description: as §1

[16] = molecular target: MPSK1 (Homo sapiens, UniProt O75716); test: biochemical; conditions: read-out: Percentages of residual activities of the kinase reaction
Description: as §1

[17] = molecular target: MSK1 (Homo sapiens, UniProt O75582); test: biochemical; conditions: read-out: Percentages of residual activities of the kinase reaction
Description: as §1

[18] = molecular target: MST4 (Homo sapiens, UniProt Q9P289); test: biochemical; conditions: read-out: Percentages of residual activities of the kinase reaction
Description: as §1

[19] = molecular target: NUAK1 (Homo sapiens, UniProt O60285); test: biochemical; conditions: read-out: Percentages of residual activities of the kinase reaction
Description: as §1

[20] = molecular target: PAK2 (Homo sapiens, UniProt Q13177); test: biochemical; conditions: read-out: Percentages of residual activities of the kinase reaction
Description: as §1

[21] = molecular target: PKA (Homo sapiens, UniProt P17612); test: biochemical; conditions: read-out: Percentages of residual activities of the kinase reaction
Description: as §1

[22] = molecular target: PKCz (Homo sapiens, UniProt Q05513); test: biochemical; conditions: read-out: Percentages of residual activities of the kinase reaction
Description: as §1

[23] = molecular target: PLK1 (Homo sapiens, UniProt P53350); test: biochemical; conditions: read-out: Percentages of residual activities of the kinase reaction
Description: as §1

[24] = molecular target: PRAK (Homo sapiens, UniProt Q8IW41); test: biochemical; conditions: read-out: Percentages of residual activities of the kinase reaction
Description: as §1

[25] = molecular target: RSK1 (Homo sapiens, UniProt Q15418); test: biochemical; conditions: read-out: Percentages of residual activities of the kinase reaction
Description: as §1

[26] = molecular target: RSK2 (Homo sapiens, UniProt P51812); test: biochemical; conditions: read-out: Percentages of residual activities of the kinase reaction
Description: as §1

[27] = molecular target: SGK1 (Homo sapiens, UniProt O00141); test: biochemical; conditions: read-out: Percentages of residual activities of the kinase reaction
Description: as §1

[28] = molecular target: SYK (Homo sapiens, UniProt P43405); test: biochemical; conditions: read-out: Percentages of residual activities of the kinase reaction
Description: as §1

[29] = molecular target: TAK1 (Homo sapiens, UniProt O43318); test: biochemical; conditions: read-out: Percentages of residual activities of the kinase reaction
Description: as §1

[30] = molecular target: TIE2 (Homo sapiens, UniProt Q02763); test: biochemical; conditions: read-out: Percentages of residual activities of the kinase reaction
Description: as §1

[31] = molecular target: TrkA (Homo sapiens, UniProt P04629); test: biochemical; conditions: read-out: Percentages of residual activities of the kinase reaction
Description: as §1

[32] = molecular target: VEG-FR (Homo sapiens, UniProt P17948); test: biochemical; conditions: read-out: Percentages of residual activities of the kinase reaction
VEG-FR, sequence (P17948 784-1338 limits assumed): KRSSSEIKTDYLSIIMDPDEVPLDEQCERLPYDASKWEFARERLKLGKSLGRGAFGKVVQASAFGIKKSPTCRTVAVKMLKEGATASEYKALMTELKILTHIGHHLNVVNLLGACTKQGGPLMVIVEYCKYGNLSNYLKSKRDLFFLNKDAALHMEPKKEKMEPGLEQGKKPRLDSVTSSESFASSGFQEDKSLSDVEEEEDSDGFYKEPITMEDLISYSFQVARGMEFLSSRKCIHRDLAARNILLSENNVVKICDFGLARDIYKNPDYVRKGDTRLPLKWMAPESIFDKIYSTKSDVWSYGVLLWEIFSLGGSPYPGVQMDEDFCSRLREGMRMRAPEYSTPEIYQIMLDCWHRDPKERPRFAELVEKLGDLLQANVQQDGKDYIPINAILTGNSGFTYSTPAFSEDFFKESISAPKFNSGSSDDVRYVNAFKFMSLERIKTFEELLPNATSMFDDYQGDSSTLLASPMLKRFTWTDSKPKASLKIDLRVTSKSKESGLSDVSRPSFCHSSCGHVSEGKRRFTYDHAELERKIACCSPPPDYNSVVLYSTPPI
Description: as §1

[33] = molecular target: ZAP70 (Homo sapiens, UniProt P43403); test: biochemical; conditions: read-out: Percentages of residual activities of the kinase reaction
Description: as §1

[34] = molecular target: p38a MAPK (Homo sapiens, UniProt Q16539); test: biochemical; conditions: read-out: Percentages of residual activities of the kinase reaction
Description: as §1

[35] = molecular target: p38d MAPK (Homo sapiens, UniProt O15264); test: biochemical; conditions: read-out: Percentages of residual activities of the kinase reaction
Description: as §1

[36] = test system: AMPK; test: PK selectivity profiling, residual kinase activity; type: biochemical; conditions: 1 μM ARC-669, ATP close to Km
[37] = test system: CK1; test: PK selectivity profiling, residual kinase activity; type: biochemical; conditions: 1 μM ARC-669, ATP close to Km
[38] = test system: CK2; test: PK selectivity profiling, residual kinase activity; type: biochemical; conditions: 1 μM ARC-669, ATP close to Km
[39] = molecular target: T1, SmMLCK (Homo sapiens, UniProt Q15746); test: PK selectivity profiling, residual kinase activity; type: biochemical; conditions: 1 μM ARC-669, ATP close to Km, read-out: Percentages of residual activities of the kinase reaction
T1 construct: Division of Signal Transduction Therapy, University of Dundee (contract testing)

[40] = test system: PHK; test: PK selectivity profiling, residual kinase activity; type: biochemical; conditions: 1 μM ARC-669, ATP close to Km
[41] = molecular target: catalytic subunit of cAMP-dependent protein kinase (PKAc) (Homo sapiens, UniProt P17612); test: Binding affinity to PKAc; conditions: towards PKAc

## CN(C)c1ccc2c(c1)Oc1cc(N(C)C)ccc1C21OC(=O)c2cc(C(=O)NCCCC[C@@H](NC(=O)[C@@H](CCCNC(=N)N)NC(=O)[C@@H](CCCNC(=N)N)NC(=O)[C@@H](CCCNC(=N)N)NC(=O)[C@@H](CCCNC(=N)N)NC(=O)[C@@H](CCCNC(=N)N)NC(=O)[C@@H](CCCNC(=N)N)NC(=O)CCCCCNC(=O)[C@@H](CCCNC(=N)N)NC(=O)CCCCCNC(=O)c3ccc(-c4ccnc(N)n4)s3)C(N)=O)ccc21 [ARC-669]
[1]
  remaining activity at 1 µM: 81%
[2]
  remaining activity at 1 µM: 44%
[3]
  remaining activity at 1 µM: 3%
[4]
  remaining activity at 1 µM: 41%
[5]
  remaining activity at 1 µM: 28%
[6]
  remaining activity at 1 µM: 43%
[7]
  remaining activity at 1 µM: 98%
[8]
  remaining activity at 1 µM: 90%
[9]
  remaining activity at 1 µM: 96%
[10]
  remaining activity at 1 µM: 114%
[11]
  remaining activity at 1 µM: 82%
[12]
  remaining activity at 1 µM: 63%
[13]
  remaining activity at 1 µM: 11%
[14]
  remaining activity at 1 µM: 68%
[15]
  remaining activity at 1 µM: 60%
[16]
  remaining activity at 1 µM: 97%
[17]
  remaining activity at 1 µM: 3%
[18]
  remaining activity at 1 µM: 45%
[19]
  remaining activity at 1 µM: 12%
[20]
  remaining activity at 1 µM: 43%
[21]
  remaining activity at 1 µM: 1%
[22]
  remaining activity at 1 µM: 10%
[23]
  remaining activity at 1 µM: 101%
[24]
  remaining activity at 1 µM: 63%
[25]
  remaining activity at 1 µM: 2%
[26]
  remaining activity at 1 µM: 4%
[27]
  remaining activity at 1 µM: 8%
[28]
  remaining activity at 1 µM: 73%
[29]
  remaining activity at 1 µM: 13%
[30]
  remaining activity at 1 µM: 86%
[31]
  remaining activity at 1 µM: 101%
[32]
  remaining activity at 1 µM: 25%
[33]
  remaining activity at 1 µM: 82%
[34]
  remaining activity at 1 µM: 55%
[35]
  remaining activity at 1 µM: 104%
[36]
  Percentages of residual activities of the kinase reaction: 36%
[37]
  Percentages of residual activities of the kinase reaction: 72%
[38]
  Percentages of residual activities of the kinase reaction: 7%
[39]
  remaining activity at 1 µM: 46%
[40]
  Percentages of residual activities of the kinase reaction: 32%
[41]
  Kd: 0.1 nM
